Experimental data taken from EP4786492A1.
Changes are numbered by the printed parent chain. Blank lines part the entries; values can stand above or below the binder they belong to.

Legend:
[1] = target: DLL3 endogenously expressed on NCI-H82 cells (UniProt Q9NYJ7); test: FACS on NCI-H82 cells; antibody 4 nM
[2] = target: DLL3 endogenously expressed on NCI-H82 cells (UniProt Q9NYJ7); test: FACS on NCI-H82 cells; antibody 20 nM
[3] = target: DLL3 endogenously expressed on NCI-H82 cells (UniProt Q9NYJ7); test: FACS on NCI-H82 cells; antibody 0.8 nM
[4] = target: DLL3 endogenously expressed on NCI-H82 cells (UniProt Q9NYJ7); test: FACS on NCI-H82 cells; antibody 100 nM
[5] = target: DLL3 endogenously expressed on NCI-H82 cells (UniProt Q9NYJ7); test: FACS on NCI-H82 cells; antibody 0.16 nM
[6] = target: mouse DLL3 on CHO-K1-mDLL3 cells (mouse) (UniProt O88516); test: FACS, CHO-K1-mDLL3 cells, 4 nM antibody
Sequence of mouse DLL3 on CHO-K1-mDLL3 cells (mouse) (O88516 other isoform, or with tags, fused parts or gaps limits assumed): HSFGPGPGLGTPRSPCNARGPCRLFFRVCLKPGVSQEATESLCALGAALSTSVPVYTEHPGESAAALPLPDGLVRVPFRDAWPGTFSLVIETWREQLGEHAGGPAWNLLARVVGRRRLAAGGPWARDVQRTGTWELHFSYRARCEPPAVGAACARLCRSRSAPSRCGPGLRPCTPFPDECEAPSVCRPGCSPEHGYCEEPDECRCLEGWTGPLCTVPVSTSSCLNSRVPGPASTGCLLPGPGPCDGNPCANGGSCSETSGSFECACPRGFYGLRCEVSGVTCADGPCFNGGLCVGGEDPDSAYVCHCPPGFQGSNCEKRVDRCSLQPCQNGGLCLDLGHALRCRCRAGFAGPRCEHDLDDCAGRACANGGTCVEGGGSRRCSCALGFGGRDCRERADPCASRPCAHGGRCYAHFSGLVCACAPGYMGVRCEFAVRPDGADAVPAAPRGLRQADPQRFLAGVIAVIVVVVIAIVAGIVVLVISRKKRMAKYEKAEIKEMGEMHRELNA

[7] = target: DLL3 endogenously expressed on NCI-H82 cells (UniProt Q9NYJ7); test: FACS on NCI-H82 cells; antibody 0.032 nM
[8] = target: mouse DLL3 on CHO-K1-mDLL3 cells (mouse) (UniProt O88516); test: FACS, CHO-K1-mDLL3 cells, 20 nM antibody
[9] = target: DLL3 endogenously expressed on NCI-H82 cells (UniProt Q9NYJ7); test: FACS on NCI-H82 cells; antibody 0.0064 nM
[10] = target: mouse DLL3 on CHO-K1-mDLL3 cells (mouse) (UniProt O88516); test: FACS, CHO-K1-mDLL3 cells, 0.8 nM antibody
[11] = target: mouse DLL3 on CHO-K1-mDLL3 cells (mouse) (UniProt O88516); test: FACS, CHO-K1-mDLL3 cells, 100 nM antibody
[12] = target: DLL3 endogenously expressed on NCI-H82 cells (UniProt Q9NYJ7); test: FACS on NCI-H82 cells; antibody 0.00128 nM
[13] = target: mouse DLL3 on CHO-K1-mDLL3 cells (mouse) (UniProt O88516); test: FACS, CHO-K1-mDLL3 cells, 0.16 nM antibody
[14] = target: monkey DLL3 on CHO-K1-cyno DLL3 cells (cynomolgus monkey); test: FACS, CHO-K1-cyno DLL3 cells, 4 nM antibody
Sequence of monkey DLL3 on CHO-K1-cyno DLL3 cells (cynomolgus monkey) (chain, as listed by the source limits assumed): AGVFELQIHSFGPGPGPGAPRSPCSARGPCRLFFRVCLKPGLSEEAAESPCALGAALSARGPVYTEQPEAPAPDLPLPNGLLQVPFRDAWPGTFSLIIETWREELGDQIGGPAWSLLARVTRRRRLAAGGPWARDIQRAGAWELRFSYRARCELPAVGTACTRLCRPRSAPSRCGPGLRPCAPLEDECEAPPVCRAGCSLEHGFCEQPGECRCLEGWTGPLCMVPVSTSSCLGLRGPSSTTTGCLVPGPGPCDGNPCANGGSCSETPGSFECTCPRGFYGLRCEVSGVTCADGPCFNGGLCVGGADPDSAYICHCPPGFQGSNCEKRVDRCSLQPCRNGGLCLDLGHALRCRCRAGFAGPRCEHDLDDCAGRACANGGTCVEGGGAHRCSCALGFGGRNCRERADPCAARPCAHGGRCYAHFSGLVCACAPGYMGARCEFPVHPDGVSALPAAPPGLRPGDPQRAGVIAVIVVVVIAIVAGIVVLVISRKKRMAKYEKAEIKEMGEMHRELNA

[15] = target: mouse DLL3 on CHO-K1-mDLL3 cells (mouse) (UniProt O88516); test: FACS, CHO-K1-mDLL3 cells, 0.032 nM antibody
[16] = target: monkey DLL3 on CHO-K1-cyno DLL3 cells (cynomolgus monkey); test: FACS, CHO-K1-cyno DLL3 cells, 20 nM antibody
[17] = target: mouse DLL3 on CHO-K1-mDLL3 cells (mouse) (UniProt O88516); test: FACS, CHO-K1-mDLL3 cells, 0.0064 nM antibody
[18] = target: monkey DLL3 on CHO-K1-cyno DLL3 cells (cynomolgus monkey); test: FACS, CHO-K1-cyno DLL3 cells, 0.8 nM antibody
[19] = target: monkey DLL3 on CHO-K1-cyno DLL3 cells (cynomolgus monkey); test: FACS, CHO-K1-cyno DLL3 cells, 100 nM antibody
[20] = target: mouse DLL3 on CHO-K1-mDLL3 cells (mouse) (UniProt O88516); test: FACS, CHO-K1-mDLL3 cells, 0.00128 nM antibody
[21] = target: monkey DLL3 on CHO-K1-cyno DLL3 cells (cynomolgus monkey); test: FACS, CHO-K1-cyno DLL3 cells, 0.16 nM antibody
[22] = target: monkey DLL3 on CHO-K1-cyno DLL3 cells (cynomolgus monkey); test: FACS, CHO-K1-cyno DLL3 cells, 0.032 nM antibody
[23] = target: monkey DLL3 on CHO-K1-cyno DLL3 cells (cynomolgus monkey); test: FACS, CHO-K1-cyno DLL3 cells, 0.0064 nM antibody
[24] = target: monkey DLL3 on CHO-K1-cyno DLL3 cells (cynomolgus monkey); test: FACS, CHO-K1-cyno DLL3 cells, 0.00128 nM antibody
[25] = target: human DLL1 protein (Acro, Cat. No. DL1-H52H8) (human) (UniProt O00548); test: ELISA, coated hDLL1; maximum over 0.1, 1, 10, 100 nM antibody
Sequence of human DLL1 protein (Acro, Cat. No. DL1-H52H8) (human) (O00548 18-540 limits assumed): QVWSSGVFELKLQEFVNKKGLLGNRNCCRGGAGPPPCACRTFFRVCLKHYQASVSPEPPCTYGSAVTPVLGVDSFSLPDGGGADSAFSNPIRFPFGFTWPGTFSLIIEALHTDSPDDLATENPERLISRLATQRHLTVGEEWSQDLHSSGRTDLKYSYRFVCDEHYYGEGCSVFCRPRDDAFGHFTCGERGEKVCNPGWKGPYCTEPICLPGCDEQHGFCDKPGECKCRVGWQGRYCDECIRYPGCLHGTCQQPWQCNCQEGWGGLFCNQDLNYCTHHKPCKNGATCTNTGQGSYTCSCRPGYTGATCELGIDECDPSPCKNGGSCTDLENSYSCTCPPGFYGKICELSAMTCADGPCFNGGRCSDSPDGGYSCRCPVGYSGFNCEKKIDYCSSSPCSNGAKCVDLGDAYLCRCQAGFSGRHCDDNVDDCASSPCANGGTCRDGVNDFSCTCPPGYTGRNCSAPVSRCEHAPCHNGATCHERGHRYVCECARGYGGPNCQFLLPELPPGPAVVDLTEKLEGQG

[26] = target: human DLL4 protein (Acro, Cat. No. DL4-H5227) (human) (UniProt Q9NR61); test: ELISA, coated hDLL4; maximum over 0.1, 1, 10, 100 nM antibody
Sequence of human DLL4 protein (Acro, Cat. No. DL4-H5227) (human) (Q9NR61 27-524 limits assumed): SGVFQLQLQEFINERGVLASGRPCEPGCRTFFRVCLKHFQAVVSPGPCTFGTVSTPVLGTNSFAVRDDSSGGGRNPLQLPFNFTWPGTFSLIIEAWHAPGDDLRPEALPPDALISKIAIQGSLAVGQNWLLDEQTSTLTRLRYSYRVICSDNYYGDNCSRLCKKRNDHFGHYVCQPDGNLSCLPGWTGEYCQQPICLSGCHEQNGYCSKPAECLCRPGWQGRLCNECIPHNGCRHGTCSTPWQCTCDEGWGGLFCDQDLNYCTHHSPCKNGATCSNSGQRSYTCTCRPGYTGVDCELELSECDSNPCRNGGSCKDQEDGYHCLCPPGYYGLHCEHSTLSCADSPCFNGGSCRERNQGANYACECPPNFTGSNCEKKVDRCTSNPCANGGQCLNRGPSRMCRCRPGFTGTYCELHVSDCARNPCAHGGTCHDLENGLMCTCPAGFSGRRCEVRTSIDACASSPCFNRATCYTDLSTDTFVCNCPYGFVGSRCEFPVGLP

[27] = target: human DLL3 protein (extracellular segment, His tag) (human) (UniProt Q9NYJ7); test: SPR (Biacore 8K), antibody captured on Protein A chip, DLL3 antigen in solution, 1:1 Langmuir fit
Sequence of human DLL3 protein (extracellular segment, His tag) (human) (Q9NYJ7 27-492): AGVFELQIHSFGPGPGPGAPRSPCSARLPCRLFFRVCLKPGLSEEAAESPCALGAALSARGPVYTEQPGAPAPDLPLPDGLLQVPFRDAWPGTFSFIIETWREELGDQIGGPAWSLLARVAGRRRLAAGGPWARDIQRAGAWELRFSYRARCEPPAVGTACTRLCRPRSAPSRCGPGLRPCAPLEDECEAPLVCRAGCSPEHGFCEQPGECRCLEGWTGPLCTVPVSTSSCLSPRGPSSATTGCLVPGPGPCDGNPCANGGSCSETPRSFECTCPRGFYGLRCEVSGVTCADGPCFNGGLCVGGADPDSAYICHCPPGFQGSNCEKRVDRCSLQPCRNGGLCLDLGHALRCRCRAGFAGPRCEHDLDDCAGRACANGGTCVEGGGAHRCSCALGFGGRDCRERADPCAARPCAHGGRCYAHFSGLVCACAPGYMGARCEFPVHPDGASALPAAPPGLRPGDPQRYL

[28] = target: human delta-like ligand 3 (DLL3) on SHP77 cells (human) (UniProt Q9NYJ7); test: FACS on SHP77 cells
Sequence of human delta-like ligand 3 (DLL3) on SHP77 cells (human) (Q9NYJ7 27-618, stated change not applied): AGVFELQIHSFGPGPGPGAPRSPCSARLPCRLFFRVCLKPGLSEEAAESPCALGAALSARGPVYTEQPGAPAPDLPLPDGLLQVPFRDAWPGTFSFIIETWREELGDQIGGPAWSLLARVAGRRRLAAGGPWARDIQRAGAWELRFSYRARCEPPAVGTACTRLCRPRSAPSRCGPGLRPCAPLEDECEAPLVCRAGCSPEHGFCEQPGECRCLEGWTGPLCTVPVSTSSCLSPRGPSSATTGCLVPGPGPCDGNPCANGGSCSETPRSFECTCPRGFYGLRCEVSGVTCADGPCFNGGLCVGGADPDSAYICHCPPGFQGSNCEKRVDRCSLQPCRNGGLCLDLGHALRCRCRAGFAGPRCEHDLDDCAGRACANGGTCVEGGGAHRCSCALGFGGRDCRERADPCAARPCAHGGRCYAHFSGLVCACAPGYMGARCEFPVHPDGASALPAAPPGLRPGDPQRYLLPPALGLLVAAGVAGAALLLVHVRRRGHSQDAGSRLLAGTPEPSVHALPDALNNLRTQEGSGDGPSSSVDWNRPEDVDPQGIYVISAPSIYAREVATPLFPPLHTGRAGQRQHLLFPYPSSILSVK

[29] = target: human DLL3 protein expressed on CHO-K1 recombinant cells (human DLL3 extracellular segment fused to EpCAM transmembrane and intracellular regions) (human) (UniProt Q9NYJ7); test: FACS, CHO-K1 hDLL3 cells, 4 nM antibody
Sequence of human DLL3 protein expressed on CHO-K1 recombinant cells (human DLL3 extracellular segment fused to EpCAM transmembrane and intracellular regions) (human) (Q9NYJ7 other isoform, or with tags, fused parts or gaps limits assumed): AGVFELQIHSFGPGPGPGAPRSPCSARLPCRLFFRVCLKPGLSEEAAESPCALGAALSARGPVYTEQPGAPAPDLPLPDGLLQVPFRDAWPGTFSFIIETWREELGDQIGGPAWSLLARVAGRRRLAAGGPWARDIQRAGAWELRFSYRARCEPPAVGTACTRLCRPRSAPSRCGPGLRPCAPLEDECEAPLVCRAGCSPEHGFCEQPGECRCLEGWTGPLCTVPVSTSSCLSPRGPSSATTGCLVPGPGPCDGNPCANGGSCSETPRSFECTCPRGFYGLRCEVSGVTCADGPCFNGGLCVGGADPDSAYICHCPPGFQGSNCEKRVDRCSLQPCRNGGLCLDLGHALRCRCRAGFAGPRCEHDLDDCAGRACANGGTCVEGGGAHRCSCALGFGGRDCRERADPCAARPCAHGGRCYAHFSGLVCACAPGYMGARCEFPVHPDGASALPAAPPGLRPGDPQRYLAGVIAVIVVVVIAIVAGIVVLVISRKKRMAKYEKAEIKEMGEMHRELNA

[30] = target: human DLL3 protein expressed on CHO-K1 recombinant cells (human DLL3 extracellular segment fused to EpCAM transmembrane and intracellular regions) (human) (UniProt Q9NYJ7); test: FACS, CHO-K1 hDLL3 cells, 20 nM antibody
[31] = target: human DLL3 protein expressed on CHO-K1 recombinant cells (human DLL3 extracellular segment fused to EpCAM transmembrane and intracellular regions) (human) (UniProt Q9NYJ7); test: FACS, CHO-K1 hDLL3 cells, 0.8 nM antibody
[32] = target: human DLL3 protein expressed on CHO-K1 recombinant cells (human DLL3 extracellular segment fused to EpCAM transmembrane and intracellular regions) (human) (UniProt Q9NYJ7); test: FACS, CHO-K1 hDLL3 cells, 100 nM antibody
[33] = target: human DLL3 protein expressed on CHO-K1 recombinant cells (human DLL3 extracellular segment fused to EpCAM transmembrane and intracellular regions) (human) (UniProt Q9NYJ7); test: FACS, CHO-K1 hDLL3 cells, 0.16 nM antibody
[34] = target: human DLL3 protein expressed on CHO-K1 recombinant cells (human DLL3 extracellular segment fused to EpCAM transmembrane and intracellular regions) (human) (UniProt Q9NYJ7); test: FACS, CHO-K1 hDLL3 cells, 0.032 nM antibody
[35] = target: human DLL3 protein expressed on CHO-K1 recombinant cells (human DLL3 extracellular segment fused to EpCAM transmembrane and intracellular regions) (human) (UniProt Q9NYJ7); test: FACS, CHO-K1 hDLL3 cells, 0.0064 nM antibody
[36] = target: human DLL3 protein expressed on CHO-K1 recombinant cells (human DLL3 extracellular segment fused to EpCAM transmembrane and intracellular regions) (human) (UniProt Q9NYJ7); test: FACS, CHO-K1 hDLL3 cells, 0.00128 nM antibody

Sequence of DLL3 endogenously expressed on NCI-H82 cells (Q9NYJ7 27-618): as the sequence (Q9NYJ7 27-618, stated change not applied) above

MFI [1]: 738
MFI [2]: 796
MFI [3]: 709
MFI [4]: 872
MFI [5]: 669
MFI [6]: 458 MFI
MFI [7]: 371
MFI [8]: 491 MFI
MFI [9]: 179
MFI [10]: 413 MFI
MFI [11]: 553 MFI
MFI [12]: 123
MFI [13]: 345 MFI
MFI [14]: 30000 MFI
MFI [15]: 287 MFI
MFI [16]: 30000 MFI
MFI [17]: 269 MFI
MFI [18]: 24700 MFI
MFI [19]: 29600 MFI
MFI [20]: 190 MFI
MFI [21]: 10600 MFI
MFI [22]: 4020 MFI
MFI [23]: 3760 MFI
MFI [24]: 1450 MFI
Emax of OD450 nm binding value [25]: 0.06 OD450 nm
Emax of OD450 nm binding value [26]: 0.06 OD450 nm
Kd [27]: 0.304 nM
koff [27]: 0.00175 s⁻¹
kon [27]: 5.76e+06 M⁻¹ s⁻¹
B1: Hab009VL3aVH1-hFc (scFv, part only; not given: VL-VH linker and human IgG1 Fc, V domains shown, not shown: another chain or arm of the molecule; a dimerising Fc or GST; small tags and cut ends)
VL: DIVMTQSPLSLPVTPGEPASISCRASQTISDYLHWYLQKSHQSPQLLIKYASQSISGVPDRFSGSGSGTDFTLKISRVEAEDVGVYYCQQGHSFPLTFGQGTKLEIK
VH: EVQLVQSGAEVKKPGASVKVSCKASGYTFTSYWMHWVRQAPGQRLEWMGTIYPGNSDTRYNQKFKDRVTITADTSASTAYMELSSLRSEDTAVYYCTRSYDYGDLDYWGQGTTVTVSS

MFI at 0.00128 nM [28]: 107 MFI
MFI at 0.0064 nM [28]: 129 MFI
MFI at 0.032 nM [28]: 205 MFI
MFI at 0.16 nM [28]: 430 MFI
MFI at 0.8 nM [28]: 692 MFI
MFI at 4 nM [28]: 783 MFI
MFI at 20 nM [28]: 855 MFI
MFI at 100 nM [28]: 969 MFI
MFI [29]: 11900 MFI
MFI [6]: 367 MFI
MFI [30]: 12400 MFI
MFI [8]: 383 MFI
MFI [31]: 11000 MFI
MFI [32]: 12900 MFI
MFI [10]: 327 MFI
MFI [11]: 400 MFI
MFI [33]: 5840 MFI
MFI [13]: 258 MFI
MFI [34]: 1540 MFI
MFI [14]: 19900 MFI
MFI [15]: 166 MFI
MFI [35]: 452 MFI
MFI [16]: 27100 MFI
MFI [17]: 109 MFI
MFI [36]: 199 MFI
MFI [18]: 6880 MFI
MFI [19]: 27000 MFI
MFI [20]: 86 MFI
MFI [21]: 1640 MFI
MFI [22]: 423 MFI
MFI [23]: 178 MFI
MFI [24]: 120 MFI
Emax of OD450 nm binding value [25]: 0.05 OD450 nm
Emax of OD450 nm binding value [26]: 0.08 OD450 nm
Kd [27]: 0.325 nM
koff [27]: 0.00194 s⁻¹
kon [27]: 5.96e+06 M⁻¹ s⁻¹
B2: Hab009VL1aVH1-hFc (scFv, part only; not given: scFv linker and human IgG1 Fc, V domains shown, not shown: another chain or arm of the molecule; a dimerising Fc or GST; small tags and cut ends)
VL: B1 VL with S40P, H41G, T69S
VH: B1 VH
